Laboratory results published in publication PMC6366716.

Biological target: Fbw7α (UniProt Q969H0)
Assay: anti-HA co-IP, anti-FLAG blot
Details: reference: wild-type HA-SV40 LT; sites T701

SV40 LT (from UniProt P03070) HA-SV40 LT T701A
binding against the reference: lost
